Test results from patent EP4674438A1, “ANTIBODY-DRUG CONJUGATE CONTAINING ANTI-CD138 ANTIBODY” (priority 2023, dated 2024).

Assays:
[1] = target: T1, human CD138 protein (human, UniProt P18827 23-310); assay: cell-based or functional assay
T1 sequence: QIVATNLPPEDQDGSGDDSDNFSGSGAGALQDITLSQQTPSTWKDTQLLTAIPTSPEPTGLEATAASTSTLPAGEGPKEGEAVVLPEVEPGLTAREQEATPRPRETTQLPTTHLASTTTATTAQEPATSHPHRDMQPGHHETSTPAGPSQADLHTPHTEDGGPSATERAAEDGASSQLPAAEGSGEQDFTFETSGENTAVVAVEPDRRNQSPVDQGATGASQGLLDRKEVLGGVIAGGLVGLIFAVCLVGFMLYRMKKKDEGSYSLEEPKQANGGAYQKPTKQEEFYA

[2] = target: T1, human CD138 protein; assay: flow cytometry on AsPC-1 cells, 0.001 to 100 ug/ml, anti-human IgG Fc-APC
[3] = target: T1, human CD138 protein; assay: flow cytometry on AsPC-1 cells (legend of Figure 1)

Binder	IC50 (ng/ml), cytotoxicity, Capan-1 (CD138-positive), CellTiter-Glo 2.0 [1]	further results
Antibody-drug conjugate 3 (ADC3) (antibody, V domains shown, MC-VC-PAB-MMAE on cysteine sulfhydryls after TCEP reduction of hinge disulfide bonds; positions not given; DAR 7.1) VH: QVQLQQSGSELMMPGASVKISCKATGYTFSNYWIEWVKQRPGHGLEWIGEILPGTGRTIYNEKFKGKATFTADISSNTVQMQLSSLTSEDSAVYYCARRDYYGNFYYAMDYWGQGTLVTVSS VL: DIQMTQSTSSLSASLGDRVTISCSASQGINNYLNWYQQKPDGTVELLIYYTSTLQSGVPSRFSGSGSGTDYSLTISNLEPEDIGTYYCQQYSKLPRTFGGGTKLEIKR	13 ng/mL	
Antibody-drug conjugate 4 (ADC4) (antibody, human IgG1, kappa, V domains shown, MC-VC-PAB-MMAF on cysteine sulfhydryls after TCEP reduction of hinge disulfide bonds; positions not given; DAR 2.2) VH: QVQLQQSGSELMMPGASVKISCKATGYTFSNYWIEWVKQRPGHGLEWIGEILPGTGRTIYNEKFKGKATFTADISSNTVQMQLSSLTSEDSAVYYCARRDYYGNFYYAMDYWGQGTLVTVSS VL: DIQMTQSTSSLSASLGDRVTISCSASQGINNYLNWYQQKPDGTVELLIYYTSTLQSGVPSRFSGSGSGTDYSLTISNLEPEDIGTYYCQQYSKLPRTFGGGTKLEIKR	165 ng/mL	
Antibody 1 (antibody, V domains shown, expressed in HEK293 cells; Same light chain as Antibody 2 (nBT062); also called anti-CD138 antibody) VH: QVQLQQSGSELMMPGASVKISCKATGYTFSNYWIEWVKQRPGHGLEWIGEILPGTGRTIYNEKFKGKATFTADISSNTVQMQLSSLTSEDSAVYYCARRDYYGNFYYAMDYWGQGTLVTVSS VL: DIQMTQSTSSLSASLGDRVTISCSASQGINNYLNWYQQKPDGTVELLIYYTSTLQSGVPSRFSGSGSGTDYSLTISNLEPEDIGTYYCQQYSKLPRTFGGGTKLEIKR		binding result [2]: binds
Antibody-drug conjugate 10 (ADC10) (antibody, human IgG1, kappa, L234A L235A, V domains shown, MC-VC-PAB-MMAE on cysteine sulfhydryls after TCEP reduction of hinge disulfide bonds; positions not given; DAR 7.8) VH: QVQLVQSGAEVKKPGSSVKVSCKASGYTFSNYWIEWVRQAPGQGLEWIGEILPGTGRTIYNEKFKGRATFTADESTSTAYMELSSLRSEDTAVYYCARRDYYGNFYYAMDYWGQGTLVTVSS VL: DIQMTQSPSSLSASVGDRVTITCSASQGINNYLNWYQQKPGKAPKLLIYYTSTLQSGVPSRFSGSGSGTDYTLTISSLQPEDFATYYCQQYSKLPRTFGGGTKVEIKR	29 ng/mL	
Antibody 5 (antibody, human IgG1, kappa, L234A L235A, V domains shown, Humanized; also called anti-CD138 antibody) VH: QVQLVQSGAEVKKPGSSVKVSCKASGYTFSNYWIEWVRQAPGQGLEWIGEILPGTGRTIYNEKFKGRATFTADESTSTAYMELSSLRSEDTAVYYCARRDYYGNFYYAMDYWGQGTLVTVSS VL: DIQMTQSPSSLSASVGDRVTITCSASQGINNYLNWYQQKPGKAPKLLIYYTSTLQSGVPSRFSGSGSGTDYTLTISSLQPEDFATYYCQQYSKLPRTFGGGTKVEIKR		binding result [3]: binds
